Molecular target: T1, B.1.1.529 (BA.1) S1 + S2 trimer-His Recombinant Protein (SARS-CoV-2 Omicron BA.1 (B.1.1.529), strain)
T1 construct: also called Omicron BA.1 trimeric spike; BA.1 spike
Assay: cryo-EM structure
Conditions: both partners purified

B1: 17T2 Fab fragment (Fab, V domains shown)
VH: QVQLVQSGPEVKKPGTSVKVSCKAPVFTFSISAVQWVRQARGQRLEWIGWIVVGSGNTNYAQNFQERVTITTDMSTGTVYMELSGLRSEDTAMYYCAAPYCNRTTCYDGFDLWGQGTMVTVSS
VL: EIVLTQSPGTLSLSPGERATLSCRASQSISSNYLAWYQQKPGQAPRLLIYGASSRATGIPDRFSGSGSGTDFTLSINRLEPEDFAMYYCQHYGGLSRWTFGQGTKVEIK
notes: also called Fab 17T2
stoichiometry N: 3 Fab per spike trimer

— publication PMC10844294, “A monoclonal antibody targeting a large surface of the receptor binding motif shows pan-neutralizing SARS-CoV-2 activity” (Nature Communications, 2024)
